Data on four molecules can be found in US8703915B2, “Mutant proteins and methods for producing them” (Heptares Therapeutics Limited, priority 2009, dated 2014).

The subject of data set [1] is 5HT2C receptor. Description: Antagonist binding to 5HT2C NPxxY motif alanine mutants (Table 1). Also on record: species or system human; Average / Average - BG: unit not given here. To be noted: for % of Wildtype binding / DPM1 / DPM2: antagonist Mesulergine binding; for DPM1: replicate 1; for DPM2: replicate 2; for Average - BG: average minus background; for Average: average of DPM1 and DPM2. Here is the method: An alanine scan was carried out in a similar fashion on an adenosine A2A receptor along with the 5HT2C receptor in the presence of the antagonist Mesulergine. Both alanine scans were carried out in order to further stabilize the antagonist conformation. […] The motif in Adenosine A2A is NPFIY (SEQ ID NO: 364) and for the 5HT2C is NPLVY (SEQ ID NO: 363). Therefore mutations in this region of the receptor contain stabilising mutations specific to the agonist conformation and detrimentally effect antagonist binding.
(§1) 5HT2C receptor was solubilised from transiently transfected mammalian cells about 40 hours post transfection, in 50 mM Hepes pH7.4/100 mM KCl/0.5% DDM/(0.1% CHS/0.6% CHAPS was added to cells for SCH23390 agonist assay) and protease inhibitor. Cell lysates were left at 4° C. on a rotator and then cleared by centrifugation at 13,200 rpm for 20 minutes at 4° C. Thermostability analysis was performed directly on the soluble lysate. The Tm was determined by incubating 108 μl of the lysate with [N^6-methyl-^3H]Mesulergine radioligand at a final concentration of 17 nM or 9 nM [^3H]SCH23390 for one hour at 4° C. The six ligand incubations are then incubated at six different temperatures from 25° C. to 55° C., for thirty minutes. Receptor bound and free radioligand were separated using G25 Sephadex spin columns.

Data set [2] concerns 5HT2C receptor. As to the kind of experiment: Thermostability of 5HT2C receptor bound to agonist SCH23390. Format: physicochemical, human. On the procedure: An alanine scan has been carried out on the 5HT2C receptor in the presence of the agonist SCH23390 in order to stabilise the agonist conformation. Similar to A2A, it appears that mutating L2.46 (L95 in 5HT2C) to alanine confers significant stability on this receptor increasing the Tm of the receptor by 5.4° C. (FIG. 7). It is notable that in addition to L95, mutating the nearby M93 (two residues away from L2.46) to alanine also confers stability to the agonist bound receptor, resulting in an increase of 2.9° C.
(§2) A2AR-(2-316) expression was carried out by using the pRG/III-hs-MBP E. coli expression vector and DH5α cells. Cells were grown at 37° C. in 2 L flasks containing 500 mL of 2×TY medium supplemented with Ampicillin (100 μg/mL) and glucose (0.2% w/v). At OD600≈0.7, IPTG and theophylline were added at final concentrations respectively of 0.5 mM and 100 μM, and the temperature was reduced to 20° C. After 22 to 24 hours, cells were harvested in aliquots of 14 mL, centrifuged for 30 min and stored at −20° C. Both 5HT2C and M4 receptors were transiently expressed in HEK293T cells using GeneJuice transfection reagent used according to the manufacturers guidelines.
(§3) 5HT2C receptor was solubilised from transiently transfected mammalian cells in 50 mM Hepes pH7.4, 100 mM KCl, 0.5% DDM (0.1% CHS/0.6% CHAPS was added to cells for SCH23390 agonist assay). Tm analysis was performed directly on the soluble lysate. The Tm was determined by incubating 108 μl of the lysate with [N^6-methyl-^3H]Mesulergine radioligand at a final concentration of 17 nM or 9 nM [^3H]SCH23390 for one hour at 4° C. The six ligand incubations are then incubated at six different temperatures from 25° C. to 55° C., for thirty minutes. Receptor bound and free radioligand were separated using a 96-well plate gel filtration assay.
as §1

For data set [3], the system named is 5HT2C receptor. Description: Thermostability of 5HT2C receptor bound to antagonist mesulergine. Format: physicochemical, human. Conditions: bound to antagonist (mesulergine). On the procedure: as §2, §3
The subject of data set [4] is 5HT2C receptor. As to the kind of experiment: Two point thermostability assay, SCH23390 agonist binding to 5HT2C alanine scan mutants. Format: physicochemical, human. On the procedure: An alanine scan has been carried out on the 5HT2C receptor in the presence of the agonist SCH23390 in order to stabilise the agonist conformation.
as §1

For data set [5], the system named is M4 muscarinic receptor. As to the kind of experiment: Thermostability of M4 muscarinic receptor bound to antagonist NMS. Type of data set: physicochemical, human. To be noted: bound to antagonist NMS. On the procedure:
In order to stabilise the M4 muscarinic receptors in antagonist conformation, a systematic alanine-scan was performed to identify mutations that stabilise receptors bound to the muscarinic antagonist, NMS. […] However, L71A (three residues N-terminal of the L2.46) was identified as a stabilising mutation. This mutation increases the Tm of this receptor by about 2° C. (FIG. 8a).
as §2
Transiently transfected mammalian cells expressing M4 were harvested about 40 hours post transfection and the receptors were solubilised in 50 mM Tris pH 7.5/250 mM NaCl/1% DDM/EDTA free protease inhibitor mix for 1 hour rotating at 4° C. The solubilised lysate was then cleared by centrifugation at 13000 rpm for 15 minutes at 4° C. The solubilised receptors were then purified on Ni-NTA beads and eluted with 100 mM histidine. The eluted receptor was used in radioligand binding assay. Thermostability of M4 was measured using 25 μL of purified receptor mixed with 95 μL of 12 nM [^3H]-NMS (final concentration of 10 nM). The sample was incubated for 60 min at 4° C., then 30 min at the specified temperature and then 30 min at 4° C. Receptor bound and free radioligand were separated using a 96-well plate gel filtration assay.

The subject of data set [6] is CRF1. Description: Thermostability of CRF1 bound to antagonist CP-376395, purified in DDM. Conditions: antagonist-bound state (CP-376395), purified in DDM. Format: physicochemical, human. Here is the method: In order to stabilise CRF1 in the antagonist conformation, a systematic alanine-scan was performed to identify mutations that stabilise receptors bound to the antagonist ligand CP-376395. Mutating I2.58 to alanine (I163A) confers significant stabilisation in CRF1, increasing the thermal stability by 3.9 (±0.5)° C. (FIG. 15).
CRF1 receptors were transiently expressed in HEK293T cells on 10 cm plates using GeneJuice transfection reagent used according to manufacturers guidelines.
Cells expressing CRF1 were harvested in PBS approximately 40 hours post-transfection and re-suspended in 950 μl Re-suspension buffer (50 mM Tris-HCl, 150 mM NaCl, 2× Complete EDTA-free Protease inhibitor cocktail (Roche), pH7.5). Cells were incubated with 120 nM CP-376395 and 30 nM [^3H]-CP-376395 at 37° C. for 2 hours before transferring to ice for 5 minutes. The receptors were solubilised by the addition of 1% DDM and incubated at 4° C. for 1 hour with gentle agitation. Insoluble material was removed by centrifugation at 16000×g for 10 minutes at 4° C. The solubilised receptors were partially purified with Ni-NTA agarose (Qiagen). Ni-NTA resin was equilibrated in Equilibration buffer (50 mM Tris-HCl, 150 mM NaCl, 2× Complete EDTA-free Protease inhibitor cocktail (Roche), 0.025% DDM, pH7.5) and 400 μl of a 50:50 resin slurry was added to each sample. Resin slurries were incubated at 4° C. for 1 hour 30 minutes with gentle agitation to bind receptors. Resin slurries were then transferred to a batch column filter plate (Chromabond) and centrifuged at 1000×g for 1 minute, discarding the flow-through. Resin was washed twice with 1 ml of Wash buffer (50 mM Tris-HCl, 150 mM NaCl, 2× Complete EDTA-free Protease inhibitor cocktail (Roche), 0.025% DDM, 20 mM Imidazole, pH7.5) and then eluted in 1 ml of Elution buffer (50 mM Tris-HCl, 150 mM NaCl, 2× Complete EDTA-free Protease inhibitor cocktail (Roche), 0.025% DDM, 100 mM histidine, 30 nM [^3H]-CP-376395, 120 nM CP-376395, pH7.5) by resuspension at 4° C. for 30 minutes. Eluted samples were used directly in the thermostability assay. […]

B1: 5HT2C: wild type (parent) human 5HT2C receptor (protein, listed as Homo sapiens)
chain: MVNLRNAVHSFLVHLIGLLVWQCDISVSPVAAIVTDIFNTSDGGRFKFPDGVQNWPALSIVIIIIMTIGGNILVIMAVSMEKKLHNATNYFLMSLAIADMLVGLLVMPLSLLAILYDYVWPLPRYLCPVWISLDVLFSTASIMHLCAISLDRYVAIRNPIEHSRFNSRTKAIMKIAIVWAISIGVSVPIPVIGLRDEEKVFVNNTTCVLNDPNFVLIGSFVAFFIPLTIMVITYCLTIYVLRRQALMLLHGHTEEPPGLSLDFLKCCKRNTAEEENSANPNQDQNARRRKKKERRPRGTMQAINNERKASKVLGIVFFVFLIMWCPFFITNILSVLCEKSCNQKLMEKLLNVFVWIGYVCSGINPLVYTLFNKIYRRAFSNYLRCNYKVEKKPPVRQIPRVAATALSGRELNVNIYRHTNEPVIEKASDNEPGIEMQVENLELPVNPSSVVSERISSV
For the molecule B1, in data set [1], the “% of Wildtype binding” value amounted to 100%, the DPM1 is listed as 10202 DPM, the DPM2 was 9631 DPM and the “Average - BG” value came out at 9208. In data set [1], this molecule showed an Average of 9916.5. Moreover, the Tm in data set [2] (bound to agonist SCH23390) turned out to be 43.35 °C. In data set [3], the Tm was found to be 37.1 °C.

B2: L366: 5HT2C receptor mutant, residue 7.51 (L366, L in NPLVY) to alanine (protein, UniProt P28335 33-458, looked up, variant L366A)
5-hydroxytryptamine receptor …: IVTDIFNTSDGGRFKFPDGVQNWPALSIVIIIIMTIGGNILVIMAVSMEKKLHNATNYFLMSLAIADMLVGLLVMPLSLLAILYDYVWPLPRYLCPVWISLDVLFSTASIMHLCAISLDRYVAIRNPIEHSRFNSRTKAIMKIAIVWAISIGVSVPIPVIGLRDEEKVFVNNTTCVLNDPNFVLIGSFVAFFIPLTIMVITYCLTIYVLRRQALMLLHGHTEEPPGLSLDFLKCCKRNTAEEENSANPNQDQNARRRKKKERRPRGTMQAINNERKASKVLGIVFFVFLIMWCPFFITNILSVLCEKSCNQKLMEKLLNVFVWIGYVCSGINPAVYTLFNKIYRRAFSNYLRCNYKVEKKPPVRQIPRVAATALSGRELNVNIYRHTNEPVIEKASDNEPGIEMQVENLELPVNPSSVVSERISSV
For the molecule B2, in data set [1], the “% of Wildtype binding” value is listed as 19.27%, the DPM1 was 2515 DPM, the DPM2 is 1897 DPM and the “Average - BG” value stood at 1774.5. The molecule further yielded an Average in data set [1] of 2206. The “increase of Tm” value in data set [2] (agonist SCH23390 bound, versus parent 5HT2C) worked out at 4 °C. Further, the “thermostability (agonist binding at the destabilising temperature compared to wild type)” value in data set [4] is “increased agonist binding compared to the wild type receptor”.

B3: M4: parent human M4 muscarinic receptor (protein, UniProt P08173 1-479, looked up)
Muscarinic acetylcholine …: MANFTPVNGSSGNQSVRLVTSSSHNRYETVEMVFIATVTGSLSLVTVVGNILVMLSIKVNRQLQTVNNYFLFSLACADLIIGAFSMNLYTVYIIKGYWPLGAVVCDLWLALDYVVSNASVMNLLIISFDRYFCVTKPLTYPARRTTKMAGLMIAAAWVLSFVLWAPAILFWQFVVGKRTVPDNQCFIQFLSNPAVTFGTAIAAFYLPVVIMTVLYIHISLASRSRVHKHRPEGPKEKKAKTLAFLKSPLMKQSVKKPPPGEAAREELRNGKLEEAPPPALPPPPRPVADKDTSNESSSGSATQNTKERPATELSTTEATTPAMPAPPLQPRALNPASRWSKIQIVTKQTGNECVTAIEIVPATPAGMRPAANVARKFASIARNQVRKKRQMAARERKVTRTIFAILLAFILTWTPYNVMVLVNTFCQSCIPDTVWSIGYWLCYVNSTINPACYALCNATFKKTFRHLLLCQYRNIGTAR
As for B3, the Tm in data set [5] came to 34.0 °C.

B4: CRF1-WT: wild type human CRF1 receptor (protein, UniProt P34998 24-415, looked up)
Corticotropin-releasing …: SLQDQHCESLSLASNISGLQCNASVDLIGTCWPRSPAGQLVVRPCPAFFYGVRYNTTNNGYRECLANGSWAARVNYSECQEILNEEKKSKVHYHVAVIINYLGHCISLVALLVAFVLFLRLRSIRCLRNIIHWNLISAFILRNATWFVVQLTMSPEVHQSNVGWCRLVTAAYNYFHVTNFFWMFGEGCYLHTAIVLTYSTDRLRKWMFICIGWGVPFPIIVAWAIGKLYYDNEKCWFGKRPGVYTDYIYQGPMILVLLINFIFLFNIVRILMTKLRASTTSETIQYRKAVKATLVLLPLLGITYMLFFVNPGEDEVSRVVFIYFNSFLESFQGFFVSVFYCFLNSEVRSAIRKRWHRWQDKHSIRARVARAMSIPTSPTRVSFHSIKQSTAV
Take B4: in data set [6], the Tm was determined as 26.8 °C.
